Source: patent US20230383265A1, “D-beta-HYDROXYBUTYRATE DEHYDROGENASES (BHBDhs) AND THEIR USE FOR KETONE MONITORING” (The University of North Carolina at Chapel Hill, priority 2022, published 2023)
Each block holds one molecule with its values, some of them ahead of it.

Key:
[1] = target: T1, Thermus thermophilus BHBDh (TtBHBDh), wild type, SEQ ID NO: 3 (Thermus thermophilus, UniProt Q5SKF0); test: BHB concentration-dependent BHBDh activity of TtBHBDh (NADH detection, absorbance at 340 nm); format: biochemical; settings: 1 mM NAD+, 10 mM HEPES pH 7.8, 0 mM MgCl2, 0-50 mM BHB, room temperature; read-out: Km toward BHB
T1 sequence (Q5SKF0 1-251): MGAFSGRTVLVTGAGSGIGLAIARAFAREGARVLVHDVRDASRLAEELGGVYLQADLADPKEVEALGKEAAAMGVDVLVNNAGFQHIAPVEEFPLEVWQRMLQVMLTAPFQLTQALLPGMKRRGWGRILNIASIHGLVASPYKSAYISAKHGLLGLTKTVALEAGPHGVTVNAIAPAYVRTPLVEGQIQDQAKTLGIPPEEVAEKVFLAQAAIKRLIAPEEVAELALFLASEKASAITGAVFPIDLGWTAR
Method: The activity was measured using NADH detection via absorbance at 340 nm, at room temperature. The measurement was done in a solution with 1 mM NAD^+, 10 mM HEPES at pH 7.8, and 0 mM MgCl2·6 H2O, from 0-50 mM BHB.

[2] = substrate: C[C@@H](O)CC(=O)O; test: NAD dependent BHB dehydrogenase activity of AfBHBDh; format: biochemical, Alcaligenes faecalis

Km [1]: 359 µM
Molecule: C[C@@H](O)CC(=O)O [BHB, R-3-hydroxybutyrate]

B1: (Alcaligenes faecalis) (protein)
chain: MLKGKKAVVTGSTSGIGLAMATELAKAGADVVINGFGQPEDIERERSTLESKFGVKAYYLNADLSDAQATRDFIAKAAEALGGLDILVNNAGIQHTAPIEEFPVDKWNAIIALNLSAVFHGTAAALPIMQKQGWGRIINIASAHGLVASVNKSAYVAAKHGVVGLTKVTALENAGKGITCNAICPGWVRTPLVEKQIEAISQQKGIDIEAAARELLAEKQPSLQFVTPEQLGGAAVFLSSAAADQMTGTTLSLDGGWTAR
Km [2]: 1130 µM | Vmax [2]: 223 µmol/min/mg
